Laboratory results as given in patent US20070141662.

Biological target: CISNN116 (NT1-C3-hIL21) (UniProt Q9HBE4)
Sequence (Q9HBE4 other isoform, or with tags, fused parts or gaps): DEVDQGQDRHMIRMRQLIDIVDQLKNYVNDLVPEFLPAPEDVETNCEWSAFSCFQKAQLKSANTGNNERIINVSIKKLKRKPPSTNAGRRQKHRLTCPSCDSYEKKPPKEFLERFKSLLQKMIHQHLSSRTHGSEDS

For Caspase 3, the “completion of the proteolysis reaction (Maldi analysis), 1 hour at 37° C.” value was “Maldi analysis showed 87% completion of the reaction”.
